Experimental findings from patent US20240408238A1 are described below.

The test has as its target Nme2Cas9 expressed from plasmid in HEK293T cells (human-codon-optimized, NLSs and 3xHA tag) (Neisseria meningitidis strain De11444). Briefly: cell-based or functional assay.

Turning to AcrIIC4Hpa, the genome editing in HEK293T cells at varied ratios of Acr plasmid to Cas9 plasmid: ratio giving full inhibition (mass ratio Acr plasmid:Nme2Cas9 plasmid) was 1.
Regarding AcrIIC1Nme, the genome editing in HEK293T cells at varied ratios of Acr plasmid to Cas9 plasmid: ratio giving full inhibition (mass ratio Acr plasmid:Nme2Cas9 plasmid) is 2.
